Km, kcat and kcat/Km data for one protein are collected here from publication PMC3445047.

Substrate in this data set: CC(=O)N[C@H]1[C@H](Oc2ccc([N+](=O)[O-])cc2)O[C@H](CO)[C@@H](O)[C@@H]1O
The experiment in a line: purified protein. The settings on record: pH 5.5, 30 °C.

B1: OfHex2 (Ostrinia furnacalis) (protein)
chain: IYNNNPGPKYPPTKGEVWPKPQYQKLERYYFTVNTSAFKIKATNHTCPILAKAIERYSFIMRNTFNLDLNRKPKTSRHRLPRETNSEDPYYQGLLKELDIELISPCEEYPYFNMDESYELTISTTAKLLSSSIWGILRGLESWSHLLYLTDDKDGVSIDICVNRTHIADFPRYAHRGLLLDTGRHFISMSNILKTLDAMAMNKLNVFHWHIVDDQSFPYQSEKFPDLSGKGAFDPSLVYTKDDIARVVQYATERGIRVLPEFDVPGHTRSWGEAFPNVLTECFSDGKVVGVGPMNPTVNTTYKLFQELMEEVQEWFPDKYFHIGGDEVQFDCWESNPDLQQYMKDHHMTATQLHALFMKNVIPLLGNNTKPIVWQEVFDVGVPLSSDTIIHVWKNGWVEEMVKILKAGHRLIFSASWYLDHLKTGGDWEDMYMADPRLMVNLVDDTAPLDNIVGGEACMWGEVVDDTNVINRVWPRTSAAAERLWSAGLASNSLERNVRLSILDKARHRIEEHACRMRRRAINAQPPNGPGFCVGAKLF
As usually defined, the Km is the concentration of substrate that gives half-maximal velocity. As usually defined, the kcat is the maximal rate divided by the concentration of active sites. For orientation: kcat/Km means the second-order rate constant that governs catalysis at low substrate concentration. Regarding B1, the Km was determined as 463 ± 27 µM, the kcat came to 151 ± 6.21 s⁻¹ and the kcat/Km stood at 326000 M⁻¹ s⁻¹.
